From patent US20180125988 come the findings set out here.

The test system of the series is AC1254 (CCD1-BSRS1-AE713).
AC1254 (CCD1-BSRS1-AE713), sequence (chain, as listed by the source): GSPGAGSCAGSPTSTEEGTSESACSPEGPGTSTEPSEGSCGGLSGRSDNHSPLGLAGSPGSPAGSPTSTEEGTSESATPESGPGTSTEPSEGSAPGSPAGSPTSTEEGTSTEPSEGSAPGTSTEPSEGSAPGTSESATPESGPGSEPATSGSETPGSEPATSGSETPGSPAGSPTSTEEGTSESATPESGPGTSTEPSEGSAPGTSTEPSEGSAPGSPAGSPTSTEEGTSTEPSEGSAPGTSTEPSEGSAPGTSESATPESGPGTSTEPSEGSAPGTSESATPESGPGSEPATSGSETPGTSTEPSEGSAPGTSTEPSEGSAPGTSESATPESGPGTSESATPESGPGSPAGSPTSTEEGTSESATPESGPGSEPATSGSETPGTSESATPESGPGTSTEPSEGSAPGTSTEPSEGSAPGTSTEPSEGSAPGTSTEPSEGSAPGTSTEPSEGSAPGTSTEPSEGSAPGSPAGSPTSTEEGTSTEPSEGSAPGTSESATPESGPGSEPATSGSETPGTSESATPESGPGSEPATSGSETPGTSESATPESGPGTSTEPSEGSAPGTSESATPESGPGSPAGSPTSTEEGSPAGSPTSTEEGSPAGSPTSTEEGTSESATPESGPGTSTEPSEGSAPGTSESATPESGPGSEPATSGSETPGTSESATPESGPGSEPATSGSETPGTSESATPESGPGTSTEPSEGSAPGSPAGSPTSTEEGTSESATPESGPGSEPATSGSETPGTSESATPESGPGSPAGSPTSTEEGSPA

recombinant mouse MMP-2, sequence (chain, as listed by the source): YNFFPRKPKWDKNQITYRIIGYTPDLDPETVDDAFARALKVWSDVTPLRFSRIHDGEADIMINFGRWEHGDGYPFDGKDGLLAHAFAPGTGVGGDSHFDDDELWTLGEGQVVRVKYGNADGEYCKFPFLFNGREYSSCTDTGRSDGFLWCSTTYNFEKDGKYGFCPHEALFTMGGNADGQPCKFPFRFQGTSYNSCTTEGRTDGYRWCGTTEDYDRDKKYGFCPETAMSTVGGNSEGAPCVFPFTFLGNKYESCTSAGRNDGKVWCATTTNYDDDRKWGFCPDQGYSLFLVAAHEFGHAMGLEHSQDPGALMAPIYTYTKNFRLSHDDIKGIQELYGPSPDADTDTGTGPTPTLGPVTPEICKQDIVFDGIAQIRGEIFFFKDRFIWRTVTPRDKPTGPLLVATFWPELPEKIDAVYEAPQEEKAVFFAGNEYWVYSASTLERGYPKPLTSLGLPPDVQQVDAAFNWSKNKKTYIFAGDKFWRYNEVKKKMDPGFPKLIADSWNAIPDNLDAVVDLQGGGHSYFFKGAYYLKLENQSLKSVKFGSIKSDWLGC

In the case of “recombinant human u-plasminogen activator (uPA)”, the “proteolytic cleavage at the PCM (SDS-PAGE, C4 RP-HPLC); enzyme:substrate 1:12.5, 2 h, 37 C” value was “all proteases tested here cleaved the construct as intended, with varying degree of catalytic efficiency”.

recombinant mouse MMP-2: the “proteolytic cleavage at the PCM (SDS-PAGE, C4 RP-HPLC); enzyme:substrate 1:680, 2 h, 37 C” value is “all proteases tested here cleaved the construct as intended, with varying degree of catalytic efficiency”.
